Test results published in patent US20150087577A1 (POLYPHOR, published 2015).
Each block holds one binder with its values, some of them ahead of it. *1 amine or outer side, *2 acyl side, *3 side chain or, on linkers, in order; H or OH if unused. Bridges are numbered along the chain shown (N, C = ends). [ ]: non-standard residue; d: D form. IPegDab = L-2-amino-4{2-[2-(2-methoxy-ethoxy)-ethoxy]-acetylamino}-butyric acid, COCCOCCOCC(=O)NCC[C@H](N[*:1])C(=O)[*:2]; N(2-Aminoethyl)Gly = O=C(CN(CCN[*:3])[*:1])[*:2]; 2Nal = N[C@@H](Cc1ccc2ccccc2c1)C(=O)O; Cit = NC(=O)NCCC[C@H](N)C(=O)O; Dab = NCC[C@H](N)C(=O)O

Molecular target: human CXCR4 (human, UniProt P61073 1-352)
Test: cell-based or functional assay

human CXCR4, sequence (P61073 whole entry): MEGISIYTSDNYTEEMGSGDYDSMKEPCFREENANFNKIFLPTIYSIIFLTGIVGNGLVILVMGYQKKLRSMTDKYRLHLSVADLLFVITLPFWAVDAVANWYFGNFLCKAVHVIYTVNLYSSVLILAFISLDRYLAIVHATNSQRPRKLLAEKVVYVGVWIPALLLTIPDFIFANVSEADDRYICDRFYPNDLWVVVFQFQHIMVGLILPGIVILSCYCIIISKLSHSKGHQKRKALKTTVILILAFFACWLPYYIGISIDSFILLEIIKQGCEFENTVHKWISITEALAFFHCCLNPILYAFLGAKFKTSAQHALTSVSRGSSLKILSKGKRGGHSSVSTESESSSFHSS

IC50 (nM) Ca2+ assay (method 2): 0.65 nM
B1: Example 148 (peptide)
peptide: cyclo(YRYCRG[dP]RRYCYQK[dP]P)
modifications: disulfide 4-11
SMILES: N=C(N)NCCC[C@@H]1NC(=O)[C@@H]2CSSC[C@H](NC(=O)[C@H](Cc3ccc(O)cc3)NC(=O)[C@H](CCCNC(=N)N)NC(=O)[C@H](CCCNC(=N)N)NC(=O)[C@H]3CCCN3C(=O)CNC1=O)C(=O)N[C@@H](Cc1ccc(O)cc1)C(=O)N[C@@H](CCC(N)=O)C(=O)N[C@@H](CCCCN)C(=O)N1CCC[C@@H]1C(=O)N1CCC[C@H]1C(=O)N[C@@H](Cc1ccc(O)cc1)C(=O)N[C@@H](CCCNC(=N)N)C(=O)N[C@@H](Cc1ccc(O)cc1)C(=O)N2

IC50 (nM) Ca2+ assay (method 2): 63 nM
B2: Example 138 (peptide)
peptide: cyclo(YR[Cit]C[N(2-Aminoethyl)Gly]G[dP]RR[2Nal]CY[Cit]K[dP]P)
modifications: disulfide 4-11
SMILES: N=C(N)NCCC[C@@H]1NC(=O)[C@H](CCCNC(=N)N)NC(=O)[C@H]2CCCN2C(=O)CNC(=O)CN(CCN)C(=O)[C@@H]2CSSC[C@H](NC(=O)[C@H](Cc3ccc4ccccc4c3)NC1=O)C(=O)N[C@@H](Cc1ccc(O)cc1)C(=O)N[C@@H](CCCNC(N)=O)C(=O)N[C@@H](CCCCN)C(=O)N1CCC[C@@H]1C(=O)N1CCC[C@H]1C(=O)N[C@@H](Cc1ccc(O)cc1)C(=O)N[C@@H](CCCNC(=N)N)C(=O)N[C@@H](CCCNC(N)=O)C(=O)N2

IC50 (nM) Ca2+ assay (method 2): 4.1 nM
B3: Example 136 (peptide)
peptide: cyclo(YR[Cit]CRG[dP][Cit]RWCY[Cit]K[dP]P)
modifications: disulfide 4-11
SMILES: N=C(N)NCCC[C@@H]1NC(=O)[C@@H]2CSSC[C@H](NC(=O)[C@H](Cc3c[nH]c4ccccc34)NC(=O)[C@H](CCCNC(=N)N)NC(=O)[C@H](CCCNC(N)=O)NC(=O)[C@H]3CCCN3C(=O)CNC1=O)C(=O)N[C@@H](Cc1ccc(O)cc1)C(=O)N[C@@H](CCCNC(N)=O)C(=O)N[C@@H](CCCCN)C(=O)N1CCC[C@@H]1C(=O)N1CCC[C@H]1C(=O)N[C@@H](Cc1ccc(O)cc1)C(=O)N[C@@H](CCCNC(=N)N)C(=O)N[C@@H](CCCNC(N)=O)C(=O)N2

IC50 (nM) Ca2+ assay (method 2): 0.38 nM
B4: Example 145 (peptide)
peptide: cyclo(YRTCRG[dP]RRYCYQK[dP]P)
modifications: disulfide 4-11
SMILES: C[C@@H](O)[C@@H]1NC(=O)[C@H](CCCNC(=N)N)NC(=O)[C@H](Cc2ccc(O)cc2)NC(=O)[C@@H]2CCCN2C(=O)[C@H]2CCCN2C(=O)[C@H](CCCCN)NC(=O)[C@H](CCC(N)=O)NC(=O)[C@H](Cc2ccc(O)cc2)NC(=O)[C@@H]2CSSC[C@H](NC1=O)C(=O)N[C@@H](CCCNC(=N)N)C(=O)NCC(=O)N1CCC[C@@H]1C(=O)N[C@@H](CCCNC(=N)N)C(=O)N[C@@H](CCCNC(=N)N)C(=O)N[C@@H](Cc1ccc(O)cc1)C(=O)N2

IC50 (nM) Ca2+ assay (method 2): 96.9 nM
B5: Example 142 (peptide)
peptide: cyclo(YR[Cit]CRG[dP][IPegDab]RWCY[Cit]K[dP]P)
modifications: disulfide 4-11
SMILES: COCCOCCOCC(=O)NCC[C@@H]1NC(=O)[C@H]2CCCN2C(=O)CNC(=O)[C@H](CCCNC(=N)N)NC(=O)[C@@H]2CSSC[C@H](NC(=O)[C@H](Cc3c[nH]c4ccccc34)NC(=O)[C@H](CCCNC(=N)N)NC1=O)C(=O)N[C@@H](Cc1ccc(O)cc1)C(=O)N[C@@H](CCCNC(N)=O)C(=O)N[C@@H](CCCCN)C(=O)N1CCC[C@@H]1C(=O)N1CCC[C@H]1C(=O)N[C@@H](Cc1ccc(O)cc1)C(=O)N[C@@H](CCCNC(=N)N)C(=O)N[C@@H](CCCNC(N)=O)C(=O)N2

IC50 (nM) Ca2+ assay (method 2): 4.7 nM
B6: Example 135 (peptide)
peptide: cyclo(YR[Cit]CRG[dP][Dab]R[2Nal]CY[Cit]K[dP]P)
modifications: disulfide 4-11
SMILES: N=C(N)NCCC[C@@H]1NC(=O)[C@@H]2CSSC[C@H](NC(=O)[C@H](Cc3ccc4ccccc4c3)NC(=O)[C@H](CCCNC(=N)N)NC(=O)[C@H](CCN)NC(=O)[C@H]3CCCN3C(=O)CNC1=O)C(=O)N[C@@H](Cc1ccc(O)cc1)C(=O)N[C@@H](CCCNC(N)=O)C(=O)N[C@@H](CCCCN)C(=O)N1CCC[C@@H]1C(=O)N1CCC[C@H]1C(=O)N[C@@H](Cc1ccc(O)cc1)C(=O)N[C@@H](CCCNC(=N)N)C(=O)N[C@@H](CCCNC(N)=O)C(=O)N2

IC50 (nM) Ca2+ assay (method 1): 1000 nM
B7: Example 25 (peptide)
peptide: cyclo(YR[Cit]VR[Cit][dP]RR[2Nal]VY[Cit]K[dP]P)
SMILES: CC(C)[C@@H]1NC(=O)[C@H](Cc2ccc3ccccc3c2)NC(=O)[C@H](CCCNC(=N)N)NC(=O)[C@H](CCCNC(=N)N)NC(=O)[C@H]2CCCN2C(=O)[C@H](CCCNC(N)=O)NC(=O)[C@H](CCCNC(=N)N)NC(=O)[C@H](C(C)C)NC(=O)[C@H](CCCNC(N)=O)NC(=O)[C@H](CCCNC(=N)N)NC(=O)[C@H](Cc2ccc(O)cc2)NC(=O)[C@@H]2CCCN2C(=O)[C@H]2CCCN2C(=O)[C@H](CCCCN)NC(=O)[C@H](CCCNC(N)=O)NC(=O)[C@H](Cc2ccc(O)cc2)NC1=O

IC50 (nM) Ca2+ assay (method 1): 850 nM
B8: Example 24 (peptide)
peptide: cyclo(YR[Cit]FRFPRR[2Nal]VY[Cit]K[dP]P)
SMILES: CC(C)[C@@H]1NC(=O)[C@H](Cc2ccc3ccccc3c2)NC(=O)[C@H](CCCNC(=N)N)NC(=O)[C@H](CCCNC(=N)N)NC(=O)[C@@H]2CCCN2C(=O)[C@H](Cc2ccccc2)NC(=O)[C@H](CCCNC(=N)N)NC(=O)[C@H](Cc2ccccc2)NC(=O)[C@H](CCCNC(N)=O)NC(=O)[C@H](CCCNC(=N)N)NC(=O)[C@H](Cc2ccc(O)cc2)NC(=O)[C@@H]2CCCN2C(=O)[C@H]2CCCN2C(=O)[C@H](CCCCN)NC(=O)[C@H](CCCNC(N)=O)NC(=O)[C@H](Cc2ccc(O)cc2)NC1=O

IC50 (nM) Ca2+ assay (method 2): 0.17 nM
B9: Example 147 (peptide)
peptide: cyclo(YRICRG[dP]RRYCYQK[dP]P)
modifications: disulfide 4-11
SMILES: CC[C@H](C)[C@@H]1NC(=O)[C@H](CCCNC(=N)N)NC(=O)[C@H](Cc2ccc(O)cc2)NC(=O)[C@@H]2CCCN2C(=O)[C@H]2CCCN2C(=O)[C@H](CCCCN)NC(=O)[C@H](CCC(N)=O)NC(=O)[C@H](Cc2ccc(O)cc2)NC(=O)[C@@H]2CSSC[C@H](NC1=O)C(=O)N[C@@H](CCCNC(=N)N)C(=O)NCC(=O)N1CCC[C@@H]1C(=O)N[C@@H](CCCNC(=N)N)C(=O)N[C@@H](CCCNC(=N)N)C(=O)N[C@@H](Cc1ccc(O)cc1)C(=O)N2

IC50 (nM) Ca2+ assay (method 2): 0.24 nM
B10: Example 146 (peptide)
peptide: cyclo(YRTCRG[dP]RRYCY[Cit]K[dP]P)
modifications: disulfide 4-11
SMILES: C[C@@H](O)[C@@H]1NC(=O)[C@H](CCCNC(=N)N)NC(=O)[C@H](Cc2ccc(O)cc2)NC(=O)[C@@H]2CCCN2C(=O)[C@H]2CCCN2C(=O)[C@H](CCCCN)NC(=O)[C@H](CCCNC(N)=O)NC(=O)[C@H](Cc2ccc(O)cc2)NC(=O)[C@@H]2CSSC[C@H](NC1=O)C(=O)N[C@@H](CCCNC(=N)N)C(=O)NCC(=O)N1CCC[C@@H]1C(=O)N[C@@H](CCCNC(=N)N)C(=O)N[C@@H](CCCNC(=N)N)C(=O)N[C@@H](Cc1ccc(O)cc1)C(=O)N2

IC50 (nM) Ca2+ assay (method 2): 0.18 nM
B11: Example 144 (peptide)
peptide: cyclo(LR[Cit]CRG[dP]RR[2Nal]CYQK[dP]P)
modifications: disulfide 4-11
SMILES: CC(C)C[C@@H]1NC(=O)[C@@H]2CCCN2C(=O)[C@H]2CCCN2C(=O)[C@H](CCCCN)NC(=O)[C@H](CCC(N)=O)NC(=O)[C@H](Cc2ccc(O)cc2)NC(=O)[C@@H]2CSSC[C@H](NC(=O)[C@H](CCCNC(N)=O)NC(=O)[C@H](CCCNC(=N)N)NC1=O)C(=O)N[C@@H](CCCNC(=N)N)C(=O)NCC(=O)N1CCC[C@@H]1C(=O)N[C@@H](CCCNC(=N)N)C(=O)N[C@@H](CCCNC(=N)N)C(=O)N[C@@H](Cc1ccc3ccccc3c1)C(=O)N2

IC50 (nM) Ca2+ assay (method 2): 1.28 nM
B12: Example 137 (peptide)
peptide: cyclo(YR[Cit]CRG[dP]HRWCY[Cit]K[dP]P)
modifications: disulfide 4-11
SMILES: N=C(N)NCCC[C@@H]1NC(=O)[C@@H]2CSSC[C@H](NC(=O)[C@H](Cc3c[nH]c4ccccc34)NC(=O)[C@H](CCCNC(=N)N)NC(=O)[C@H](Cc3c[nH]cn3)NC(=O)[C@H]3CCCN3C(=O)CNC1=O)C(=O)N[C@@H](Cc1ccc(O)cc1)C(=O)N[C@@H](CCCNC(N)=O)C(=O)N[C@@H](CCCCN)C(=O)N1CCC[C@@H]1C(=O)N1CCC[C@H]1C(=O)N[C@@H](Cc1ccc(O)cc1)C(=O)N[C@@H](CCCNC(=N)N)C(=O)N[C@@H](CCCNC(N)=O)C(=O)N2

IC50 (nM) Ca2+ assay (method 1): 2280 nM
B13: Example 1 (peptide)
peptide: cyclo(YR[Cit]VR[dR]R[2Nal]FY[Cit]K[dP]P)
SMILES: CC(C)[C@@H]1NC(=O)[C@H](CCCNC(N)=O)NC(=O)[C@H](CCCNC(=N)N)NC(=O)[C@H](Cc2ccc(O)cc2)NC(=O)[C@@H]2CCCN2C(=O)[C@H]2CCCN2C(=O)[C@H](CCCCN)NC(=O)[C@H](CCCNC(N)=O)NC(=O)[C@H](Cc2ccc(O)cc2)NC(=O)[C@H](Cc2ccccc2)NC(=O)[C@H](Cc2ccc3ccccc3c2)NC(=O)[C@H](CCCNC(=N)N)NC(=O)[C@@H](CCCNC(=N)N)NC(=O)[C@H](CCCNC(=N)N)NC1=O

IC50 (nM) Ca2+ assay (method 2): 0.9 nM
B14: Example 143 (peptide)
peptide: cyclo(YR[Cit]CRA[dP]RRWCY[Cit]K[dP]P)
modifications: disulfide 4-11
SMILES: C[C@@H]1NC(=O)[C@H](CCCNC(=N)N)NC(=O)[C@@H]2CSSC[C@H](NC(=O)[C@H](Cc3c[nH]c4ccccc34)NC(=O)[C@H](CCCNC(=N)N)NC(=O)[C@H](CCCNC(=N)N)NC(=O)[C@H]3CCCN3C1=O)C(=O)N[C@@H](Cc1ccc(O)cc1)C(=O)N[C@@H](CCCNC(N)=O)C(=O)N[C@@H](CCCCN)C(=O)N1CCC[C@@H]1C(=O)N1CCC[C@H]1C(=O)N[C@@H](Cc1ccc(O)cc1)C(=O)N[C@@H](CCCNC(=N)N)C(=O)N[C@@H](CCCNC(N)=O)C(=O)N2
